Biological target: Bacillus pseudofirmus Mrp antiporter complex (hetero-heptamer MrpA-MrpG, one protomer) (Bacillus pseudofirmus) (UniProt Q9RGZ5)
Experiment: cryo-EM structure; purified Mrp dimer fractions in 20 mM Tris-HCl pH 8.0, 150 mM NaCl, 0.05% LMNG, 1-2 mg/ml; dimer map 2.96 Å, symmetry-expanded protomer map 2.2 Å

In the case of “Bacillus pseudofirmus Mrp antiporter complex (hetero-heptamer MrpA-MrpG, one protomer) (from UniProt Q9RGZ5 1-805; Q9RGZ4 1-144; Q9RGZ3 1-112; Q9RGZ2 1-493; Q9RGZ1 1-158; Q9RGZ0 1-91; Q9RGY9 1-119)”, the stoichiometry N was 2.

Reference: article PMC9568556
